Assay results as given in patent publication US20250043302A1, “MUTATED HYDROXYPHENYLPYRUVATE DIOXYGENASE POLYPEPTIDE, AND CODING GENE AND USE THEREOF” (BEIJING DABEINONG BIOTECHNOLOGY CO., LTD., priority 2021, published 2025).

Legend:
Format in all cases: in vivo
[1] = tested on: Arabidopsis thaliana T1 plants; test: Mesotrione tolerance of transgenic Arabidopsis thaliana T1 plants (spray, bleached leaf area grade, damage score); design: Scores: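 damage score 0-100 computed as Σ(N×S)/(T×M)×100 over grades 0-3 with higher meaning more damage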; conditions: Arabidopsis thaliana T1 plants; for Grade 0 (classification and statistics of the grade of pesticide damage; number of plants) / Grade 1 (classification and statistics of the grade of pesticide damage; number of plants) / Grade 2 (classification and statistics of the grade of pesticide damage; number of plants) / Grade 3 (classification and statistics of the grade of pesticide damage; number of plants): 16 plants
Summary of the method: (§1)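 Damage was assessed by bleaching grade (0 none; 1 <50%; 2 >50%; 3 100% of leaf area) one week after spraying. Sprays on 18-day-old T1 and wild-type plants used field-rate multiples: topramezone 25–200, isoxaflutole 35–280, mesotrione 52.5–420 g ai/ha.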

[2] = tested on: Arabidopsis thaliana T1 plants; test: Isoxaflutole tolerance of transgenic Arabidopsis thaliana T1 plants (spray, bleached leaf area grade, damage score); design: Scores (pesticide damage): scale not given here; conditions: spray, Arabidopsis thaliana T1 plants; for Classification and statistics of the grade of pesticide damage: Grade 0 (number of plants) / Classification and statistics of the grade of pesticide damage: Grade 1 (number of plants) / Classification and statistics of the grade of pesticide damage: Grade 2 (number of plants) / Classification and statistics of the grade of pesticide damage: Grade 3 (number of plants): 16 plants
Summary of the method: as §1

[3] = tested on: Arabidopsis thaliana T1 plants; test: Topramezone tolerance of transgenic Arabidopsis thaliana T1 plants (spray, bleached leaf area grade, damage score); conditions: 7 DAT, Table 4; for Classification and statistics of the grade of pesticide damage: Grade 0 / Classification and statistics of the grade of pesticide damage: Grade 1 / Classification and statistics of the grade of pesticide damage: Grade 2 / Classification and statistics of the grade of pesticide damage: Grade 3: number of plants; for Scores: pesticide damage score 0-100
Summary of the method: as §1

[4] = isoxaflutole 35 g ai/ha (0.5x field concentration)
[5] = isoxaflutole 70 g ai/ha (1x field concentration)

B1: BnHPPDm-F372A-02: nucleotide sequence encoding Brassica napus HPPD with F372A; vector DBN11743 (nucleic acid)
DNA: ATGGGACATGAAAACGCGGCAGTGTGTGAAACTCAACAACATGATGACGCCGCCTCCCCGGGGTTTAAACTTGTCGGGTTCTCAAAATTTGTTAGGAAGAATCCAAAGTCTGACAAGTTCAAGGTGAAACGCTTCCACCACATCGAGTTCTGGTGCGGGGATGCAACAAATGTTTCACGCCGCTTTTCATGGGGACTAGGAATGAGGTTTAGCGCAAAGAGTGATCTCTCCACTGGTAATATGGTTCATGCGAGCTACTTGCTCACATCTGGAGACCTGAGATTCCTCTTCACCGCACCATATTCTCCCTCCCTGTCAGCTGGTGAAGCTCAGCCTTCAGCAACTGCAAGTATCCCTTCGTTTGATCATGCATCGTGCAGGTCTTTCTTCAGTTCACATGGACTCGGCGTCAGAGCAGTAGCGATCGAAGTAGAGGATGCTGAATCAGCTTTCTCCATATCTGTCGCCAACGGCGCGGTGCCTTCTTCTCCACCAAACGTCTTGAATGGTGCTGTTACCATTGCTGAGGTGAAGCTGTACGGAGATGTTGTTTTAAGATATGTTTCATATTACAATGGGACCGTTTCTTTTCTTCCCGGCTTTGAATCTGTTGATGATACTTCTTCCTTCCCTCTTGATTATGGGATCAGGCGGCTGGACCACGCCGTCGGCAACGTGCCGGAGTTAGGTCCTGCTTTGACATATCTTGCCGGCTTCACTGGATTCCATCAATTTGCAGAGTTTACGGCTGACGACGTGGGGACCGCGGAGAGTGGGCTGAACTCAGCAGTCTTGGCCAACAATGATGAAATGGTGCTCCTCCCCATCAATGAACCTGTGCATGGAACAAAGAGAAAGTCGCAGATTCAAACATTTTTAGAGCACAATGAGGGAGCTGGGCTACAGCACCTCGCATTGATGTCAGAAGATATTTTTCGAACGTTGAGGGAGATGCGGAAACGATCTGGTGTAGGCGGCTTTGACTTCATGCCATCCCCTCCGCCAACCTACTACAAGAACCTGAAGAAGAGGGTTGGAGACGTCCTTTCCGAGGAGCAAATTGAAGAATGTGAGGAGCTTGGAATTCTGGTGGACAGAGATGATCAAGGAACACTACTTCAGATCGCCACAAAACCATTGGGCGACAGGCCAACGATATTCATTGAGATCATTCAGCGCGTTGGATGCATGAAGCGTGATGAGGAAGGGAAGGTCTACCAGAGTGGCGGTTGTGGTGGATTTGGAAAAGGAAATTTTTCTGAGCTGTTCAAAAGCATAGAAGAGTATGAGAAAACATTGGAGGCCAAGCAGCTTGTTGGTTGA
modifications: BnHPPDm-F372A-02 Nucleotide Sequence
notes: vector DBN11743
Resistance evaluation ([1]; mesotrione 52.5 g ai/ha): Poorly resistant | Scores ([1]; mesotrione 52.5 g ai/ha): 63 | Grade 0 (classification and statistics of the grade of pesticide damage; number of plants) ([1]; mesotrione 52.5 g ai/ha): 0 | Grade 1 (classification and statistics of the grade of pesticide damage; number of plants) ([1]; mesotrione 52.5 g ai/ha): 4 | Grade 2 (classification and statistics of the grade of pesticide damage; number of plants) ([1]; mesotrione 52.5 g ai/ha): 10 | Grade 3 (classification and statistics of the grade of pesticide damage; number of plants) ([1]; mesotrione 52.5 g ai/ha): 2 | Resistance evaluation ([1]; mesotrione 105 g ai/ha): Non-resistant | Scores ([1]; mesotrione 105 g ai/ha): 100 | Grade 0 (classification and statistics of the grade of pesticide damage; number of plants) ([1]; mesotrione 105 g ai/ha): 0 | Grade 1 (classification and statistics of the grade of pesticide damage; number of plants) ([1]; mesotrione 105 g ai/ha): 0 | Grade 2 (classification and statistics of the grade of pesticide damage; number of plants) ([1]; mesotrione 105 g ai/ha): 0 | Grade 3 (classification and statistics of the grade of pesticide damage; number of plants) ([1]; mesotrione 105 g ai/ha): 16 | Resistance evaluation [2, 4]: Poorly | Scores (pesticide damage) [2, 4]: 52 | Classification and statistics of the grade of pesticide damage: Grade 0 (number of plants) [2, 4]: 0 | Classification and statistics of the grade of pesticide damage: Grade 1 (number of plants) [2, 4]: 7 | Classification and statistics of the grade of pesticide damage: Grade 2 (number of plants) [2, 4]: 9 | Classification and statistics of the grade of pesticide damage: Grade 3 (number of plants) [2, 4]: 0 | Resistance evaluation [2, 5]: Non-resistant | Scores (pesticide damage) [2, 5]: 100 | Classification and statistics of the grade of pesticide damage: Grade 0 (number of plants) [2, 5]: 0 | Classification and statistics of the grade of pesticide damage: Grade 1 (number of plants) [2, 5]: 0 | Classification and statistics of the grade of pesticide damage: Grade 2 (number of plants) [2, 5]: 0 | Classification and statistics of the grade of pesticide damage: Grade 3 (number of plants) [2, 5]: 16 | Classification and statistics of the grade of pesticide damage: Grade 0 ([3]; topramezone 25 g ai/ha (1×)): 0 | Classification and statistics of the grade of pesticide damage: Grade 1 ([3]; topramezone 25 g ai/ha (1×)): 4 | Classification and statistics of the grade of pesticide damage: Grade 2 ([3]; topramezone 25 g ai/ha (1×)): 12 | Classification and statistics of the grade of pesticide damage: Grade 3 ([3]; topramezone 25 g ai/ha (1×)): 0 | Classification and statistics of the grade of pesticide damage: Grade 0 ([3]; topramezone 100 g ai/ha (4×)): 0 | Classification and statistics of the grade of pesticide damage: Grade 1 ([3]; topramezone 100 g ai/ha (4×)): 0 | Classification and statistics of the grade of pesticide damage: Grade 2 ([3]; topramezone 100 g ai/ha (4×)): 0 | Classification and statistics of the grade of pesticide damage: Grade 3 ([3]; topramezone 100 g ai/ha (4×)): 16 | Scores ([3]; topramezone 25 g ai/ha (1×)): 58 | Scores ([3]; topramezone 100 g ai/ha (4×)): 100 | Resistance evaluation ([3]; topramezone 25 g ai/ha (1×)): poorly | Resistance evaluation ([3]; topramezone 100 g ai/ha (4×)): non-resistant (non-resistant plants (scores 68-100))
